Assay results from patent publication US20220323580A1 (Janssen / Centocor, published 2022).

B1: TNV15 (antibody, human IgG1, V domains shown)
VH: QVQLVESGGGVVQPGRSLRLSCAASGFTFSSYAMHWVRQAPGKGLEWVAFILYDGSNKKYADSVKGRFTISRDNSKNALYLQMNSLRAEDTAVYYCARDRGVSAGGNYYYYGMDVWGQGTTVTVSS
VL: EIVLTQSPATLSLSPGERATLSCRASQSVSSYLAWYQQKPGQAPRLLIYDASNRATGIPARFSGSGSGTDFTLTISSLEPEDFAVYYCQQRSNWPPFTFGPGTKVDIK
notes: Totally human IgG1 kappa mAb from the GenTNV fusion, tested as hybridoma supernatant; also called GenTNV15.28.11; C415A
B2: TNV86 (antibody, V domains shown)
VH: QVQLVESGGGVVQPGRSLRLSCAASGFIFSSYAMHWVRQAPGNGLEWVAFMSYDGSNKKYADSVKGRFTISRDNPKNTLYLQMNSLRAEDTAVYYCARDRGIAAGGNYYYYGMDVWGQGTTVTVSS
VL: EIVLTQSPATLSLSPGERATLSCRASQSVYSYLAWYQQKPGQAPRLLIYDASNRATGIPARFSGSGSGTDFTLTISSLEPEDFAVYYCQQRSNWPPFTFGPGTKVDIK
notes: also called GenTNV86.14.34; C417A
B3: TNV148 (antibody, V domains shown)
VH: QVQLVESGGGVVQPGRSLRLSCAASGFIFSSYAMHWVRQAPGNGLEWVAFMSYDGSNKKYADSVKGRFTISRDNPKNTLYLQMNSLRAEDTAVYYCARDRGIAAGGNYYYYGMDVWGQGTTVTVSS
VL: EIVLTQSPATLSLSPGERATLSCRASQSVYSYLAWYQQKPGQAPRLLIYDASNRATGIPARFSGSGSGTDFTLTISSLEPEDFAVYYCQQRSNWPPFTFGPGTKVDIK
notes: also called GenTNV148.26.12; C420A
B4: TNV196 (antibody, human IgG1, V domains shown)
VH: QVQLVESGGGVVQPGRSLRLSCAASGFTFSSYAMHWVRQAPGKGLEWVAFISYDGSNKKSADSVKGRFTVSRDNSKNTLFLQMNSLRAEDTAVFYCARDRGIGAGGNYYYYGMDVWGQGTTVTVSS
VL: EIVLTQSPATLSLSPGERATLSCRASQSVYSYLAWYQQKPGQAPRLLIYDASNRATGIPARFSGSGSGTDFTLTISSLEPEDFAVYYCQQRSNWPPFTFGPGTKVDIK
notes: Totally human IgG1 kappa mAb from the GenTNV fusion, tested as hybridoma supernatant; also called GenTNV196.9.1; C421A

How the values were obtained:
recombinant human TNFα [1] = target: T1, recombinant human TNFα (human, UniProt P01375 77-233, 125I-labeled in the receptor blocking assay); assay: competition radioligand assay: mAb in hybridoma supernatant preincubated with 5 ng/ml 125I-TNFα, then cpm bound to plate-coated p55-sf2 counted; blocked partner p55-sf2
T1 construct: It is not tied to the protein used in the assays, so it is not used here; also called huTNFα; tumor necrosis factor alpha
Experimental: Each sample was tested in duplicate. The results shown are representative of two independent experiments.
(§1) 50:1 of p55-sf2 at 0.5:g/ml in PBS was added to Optiplates to coat the wells during a one-hour incubation at 37° C. Serial dilutions of the eight TNV cell supernatants were prepared in 96-well round-bottom plates using PBS/0.1% BSA as diluent. […] The mixture was preincubated for one hour at RT. […] After 2 hrs at RT, Optiplates were washed three times with PBS-Tween. […] of Microscint-20 was added and the cpm bound determined using the TopCount […].

recombinant human TNFα [2] = target: T1, recombinant human TNFα; assay: competition: 125I-TNFα binding to plate-coated p55-sf2, hybridoma supernatant
Experimental: as §1
The concentrations of the TNV mAbs in their respective cell supernatants were first determined by standard ELISA analysis for human IgG.

recombinant human TNFα [3] = target: T1, recombinant human TNFα; assay: cell-based or functional assay

Binder	IC50 (read off the curve) (recombinant human TNFα [1])	fold better at blocking TNF binding (vs TNV118 and TNV14) (recombinant human TNFα [2])	neutralizing TNFα bioactivity (recombinant human TNFα [3])
B1	~4 ng/mL		
B2		~4 fold	
B3	~4 ng/mL	~4 fold	4 fold (vs TNV14)
B4	~4 ng/mL		4 fold (vs TNV14)
